{
  "source": "patent US20230312739A1",
  "about": "(BIOTHEUS, published 2023)",
  "key": {"[1]": {"target": "T1, human CD73 on the cell surface (tumor cells endogenously expressing human CD73; CHOS-human CD73) (human, UniProt P21589 27-549)", "T1 construct": "The endogenous CD73 of the human tumor lines (MDA-MB-231, Calu6, SK-ME-S, H2030, SKLU1, BT549, A375, HCC44) is treated as the same protein", "T1 sequence": "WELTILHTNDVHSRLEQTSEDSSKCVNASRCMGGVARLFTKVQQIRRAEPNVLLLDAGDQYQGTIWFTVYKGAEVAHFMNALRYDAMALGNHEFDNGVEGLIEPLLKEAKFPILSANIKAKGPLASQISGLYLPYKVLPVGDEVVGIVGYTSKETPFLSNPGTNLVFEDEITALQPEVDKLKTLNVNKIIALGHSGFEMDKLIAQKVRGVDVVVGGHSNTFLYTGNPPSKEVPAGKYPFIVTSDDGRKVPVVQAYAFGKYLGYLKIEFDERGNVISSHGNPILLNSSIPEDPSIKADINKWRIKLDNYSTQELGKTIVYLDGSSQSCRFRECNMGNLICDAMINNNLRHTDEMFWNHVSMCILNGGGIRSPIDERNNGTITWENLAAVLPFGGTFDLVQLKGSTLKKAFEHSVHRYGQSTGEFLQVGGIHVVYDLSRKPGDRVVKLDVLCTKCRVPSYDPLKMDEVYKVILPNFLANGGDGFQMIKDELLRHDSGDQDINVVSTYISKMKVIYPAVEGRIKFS", "experiment": "full-field cell scanning analyzer (Celigo), percent fluorescent cells, Calu6 cells endogenously expressing human CD73", "description": "(§1) Experimental method: 10,000 cells were plated on a flat-bottom 96-well plate with 100 μL DMEM+10% FBS/well, cultured overnight so that the cells adhered to the well, and the supernatant was discarded on the next day. Serial 3-fold dilutions of antibody for 8 points were performed by diluting ⅓ of the total volume (100 μL) in 200 μL DMEM. 100 μL of the diluted antibody was added to each well of the cell plate (the supernatants of fused clones or subclones were used for screening), 100 μL of DMEM was added to the corresponding negative control well, and incubation was performed at room temperature for 1 hour. After the supernatant was discarded, 100 μL of secondary antibody (DyLight488 goat anti-mouse IgG (Abcam, Cat. No. ab97015)) was added to each well at a concentration of 5 μg/mL (diluted in DMEM), and incubation was performed for 0.5 hours at room temperature. After staining, the supernatant was discarded, followed by washing once with PBS+2% FBS, then 100 μL of PBS+2% FBS was added to each well, and then reading was performed on analyzer. A full-field cell scanning analyzer (Nexcelom Company, model Celigo® Image Cytometer) was used to measure the reading of the experimental plate. […] The binding effect of the anti-CD73 antibody to the CD73-expressing cell line was determined according to the percentage. […]"}, "[2]": {"target": "T1, human CD73 on the cell surface (tumor …)", "experiment": "full-field cell scanning analyzer (Celigo), percent fluorescent cells, A375 cells endogenously expressing human CD73", "description": "as §1"}, "[3]": {"target": "T1, human CD73 on the cell surface (tumor …)", "experiment": "full-field cell scanning analyzer (Celigo), percent fluorescent cells, BT549 cells endogenously expressing human CD73", "description": "as §1"}, "[4]": {"target": "T1, human CD73 on the cell surface (tumor …)", "experiment": "full-field cell scanning analyzer (Celigo), percent fluorescent cells, H2030 cells endogenously expressing human CD73", "description": "as §1"}, "[5]": {"target": "T1, human CD73 on the cell surface (tumor …)", "experiment": "full-field cell scanning analyzer (Celigo), percent fluorescent cells, CHOS cells recombinantly expressing human CD73", "description": "as §1"}, "[6]": {"target": "T1, human CD73 on the cell surface (tumor …)", "experiment": "full-field cell scanning analyzer (Celigo), percent fluorescent cells, MDA-MB-231 cells endogenously expressing human CD73", "description": "as §1"}},
  "data": [
    {"binder": "murine antibody 13D12 (antibody, V domains shown, Mouse monoclonal antibody purified from hybridoma supernatant; also called mouse monoclonal antibody 13D12) VH: DVKLQESGPAMVKPSQSLSLTCTVTGYSITSGYDWHWIRLFPGNKLEWMGYISYSGYTDYSPSLKSRISITHDTSKNHFFLKLHSVTTEDTATYYCTRGDHSYAMDYWGQGTSVTVS VL: DIVMTQSHKFMSTSVGDRVSITCKASQAVGTAVAWYQQKPGQSPKLLIYWASSRHTGVPDRFTGSRSGTDFTLTISSVQSEDLADYFCQQYSSYPLTFGGGTNLEIK", "values": [
      {"measurement": "EC50", "setting": "[1]", "result": 0.47, "unit": "µg/mL"},
      {"measurement": "EC50", "setting": "[2]", "result": 2.43, "unit": "µg/mL"},
      {"measurement": "EC50", "setting": "[3]", "result": 1.78, "unit": "µg/mL"},
      {"measurement": "EC50", "setting": "[4]", "result": 0.46, "unit": "µg/mL"},
      {"measurement": "EC50", "setting": "[5]", "result": 0.44, "unit": "µg/mL"},
      {"measurement": "EC50", "setting": "[6]", "result": 0.9, "unit": "µg/mL"}
    ]}
  ]
}
